{"source": "paper PMC3439536", "molecular_target": "Human CR2 SCR1-4-BCCP, site-specifically biotinylated (human) (UniProt P20023)", "sequence (P20023 21-273)": "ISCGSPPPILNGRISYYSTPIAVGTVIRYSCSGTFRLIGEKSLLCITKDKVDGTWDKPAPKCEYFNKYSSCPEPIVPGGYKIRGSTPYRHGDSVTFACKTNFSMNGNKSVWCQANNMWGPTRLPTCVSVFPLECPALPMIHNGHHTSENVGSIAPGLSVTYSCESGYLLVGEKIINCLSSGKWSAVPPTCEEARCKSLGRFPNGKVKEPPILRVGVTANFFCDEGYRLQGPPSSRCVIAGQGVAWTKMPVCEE", "experiment": "SPR"}
{"substance": "70 kDa fragment of the Epstein-Barr virus gp350/220 coat protein (from UniProt P03200-1 1-907) (domain or fragment)", "values": [{"measurement": "KD1 (higher affinity site, two-site model)", "value": 0.417, "unit": "µM"}]}
